Reference: patent publication US10227388B2, “Peptides and combination of peptides for use in immunotherapy against non-small cell lung cancer and other cancers” (immatics biotechnologies GmbH, priority 2015, dated 2019)

Molecular target: HLA-A*02:01 (Homo sapiens, UniProt P04439, D140Y/D185E/D98H/E176V/E277Q/G131W/G231S/I119V/I121R/I166T/I218V/L300P/L318F/N151K/N90K/P208A/P217A/Q86G/Q94H/R138H/R169H/T345S)
Assay: MHC binding assay (UV-ligand exchange, ELISA, peptide exchange yield)
Conditions: binding of HLA-class I restricted peptides to HLA-A*02:01
Procedure, shortened: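 Exchange yield was quantified as stabilized β2m-containing complex: monomers diluted 100-fold bound to streptavidin-coated wells, probed with HRP-conjugated anti-β2m, read at 450 nm after TMB. Complexes had been generated by UV cleavage of a photolabile ligand and replacement with the candidate peptide.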

Row | Peptide exchange (MHC class I binding score, peptide exchange yield) | Substance
1 | ″++++″ (≥75% = ++++) | 552 (GLLDLPFRVGV; listed as Homo sapiens) [compound 552]
2 | ″+++″ (≥50% = +++) | 35 (KINDTIYEV; listed as Homo sapiens) [compound 35]
3 | ″+++″ (≥50% = +++) | 155 (RVANLHFPSV; listed as Homo sapiens) [compound 155]
4 | ″+++″ (≥50% = +++) | 301 (FLVEDLVDSL; listed as Homo sapiens) [compound 301]
5 | ″+++″ (≥50% = +++) | 575 (YLISQVEGHQV; listed as Homo sapiens) [compound 575]
6 | ″+++″ (≥50% = +++) | 190 (FLSSLTETI; listed as Homo sapiens) [compound 190]
7 | ″+++″ (≥50% = +++) | 541 (SMLEPVPEL; listed as Homo sapiens) [compound 541]
8 | ″++″ (≥20% = ++) | 176 (YLMEGSYNKVFL; listed as Homo sapiens) [compound 176]
9 | ″+++″ (≥50% = +++) | 542 (RVWDISTVSSV; listed as Homo sapiens) [compound 542]
10 | ″+++″ (≥50% = +++) | 86 (NLIGKIENV; listed as Homo sapiens) [compound 86]
11 | ″+++″ (≥50% = +++) | 161 (ALLEGVNTV; listed as Homo sapiens) [compound 161]
12 | ″++″ (≥20% = ++) | 210 (LLLNAVLTV; listed as Homo sapiens) [compound 210]
13 | ″+++″ (≥50% = +++) | 390 (ALFMKQIYL; listed as Homo sapiens) [compound 390]
14 | ″+++″ (≥50% = +++) | 54 (SLLEQGKEPWMV; listed as Homo sapiens) [compound 54]
15 | ″++″ (≥20% = ++) | 377 (FLLDSSASV; listed as Homo sapiens) [compound 377]
16 | ″++++″ (≥75% = ++++) | 89 (YILPTETIYV; listed as Homo sapiens) [compound 89]
17 | ″++″ (≥20% = ++) | 47 (ILLSVPLLVV; listed as Homo sapiens) [compound 47]
18 | ″+++″ (≥50% = +++) | 179 (KVLNELYTV; listed as Homo sapiens) [compound 179]
19 | ″++″ (≥20% = ++) | 580 (LLMENAERV; listed as Homo sapiens) [compound 580]
20 | ″++″ (≥20% = ++) | 538 (LLLAHIIAL; listed as Homo sapiens) [compound 538]
21 | ″++″ (≥20% = ++) | 355 (SIQQSIERLLV; listed as Homo sapiens) [compound 355]

Row | Peptide exchange (MHC class I binding score, peptide exchange yield) | Substance
22 | ″+++″ (≥50% = +++) | 219 (KLSDIGITV; listed as Homo sapiens) [compound 219]
23 | ″+++″ (≥50% = +++) | 250 (ALSEEGLLVYL; listed as Homo sapiens) [compound 250]
24 | ″+++″ (≥50% = +++) | 525 (VLLEAGEGLVTI; listed as Homo sapiens) [compound 525]
25 | ″+++″ (≥50% = +++) | 195 (GLFADLLPRL; listed as Homo sapiens) [compound 195]
26 | ″+++″ (≥50% = +++) | 122 (FLLAEDDIYL; listed as Homo sapiens) [compound 122]
27 | ″++″ (≥20% = ++) | 233 (VLSETLYEL; listed as Homo sapiens) [compound 233]
28 | ″+++″ (≥50% = +++) | 216 (NLWEDPYYL; listed as Homo sapiens) [compound 216]
29 | ″++++″ (≥75% = ++++) | 55 (SLLDLETLSL; listed as Homo sapiens) [compound 55]
30 | ″+++″ (≥50% = +++) | 325 (FIMPATVADATAV; listed as Homo sapiens) [compound 325]
31 | ″+++″ (≥50% = +++) | 366 (RLLDMGETDLML; listed as Homo sapiens) [compound 366]
32 | ″+++″ (≥50% = +++) | 25 (FLPDEPYIKV; listed as Homo sapiens) [compound 25]
33 | ″++″ (≥20% = ++) | 429 (GLVNDLARV; listed as Homo sapiens) [compound 429]
34 | ″++++″ (≥75% = ++++) | 60 (SLTIDGIYYV; listed as Homo sapiens) [compound 60]
35 | ″+″ (≥10% = +) | 153 (FLIANVLYL; listed as Homo sapiens) [compound 153]
36 | ″++″ (≥20% = ++) | 261 (YVLEFLEEI; listed as Homo sapiens) [compound 261]
37 | ″++++″ (≥75% = ++++) | 91 (IMQDFPAEIFL; listed as Homo sapiens) [compound 91]
38 | ″+++″ (≥50% = +++) | 539 (ALFDAQAQV; listed as Homo sapiens) [compound 539]
39 | ″+++″ (≥50% = +++) | 134 (YLQELIFSV; listed as Homo sapiens) [compound 134]
40 | ″+++″ (≥50% = +++) | 619 (ALQDRVPLA; listed as Homo sapiens) [compound 619]
41 | ″+++″ (≥50% = +++) | 597 (KLLEGQVIQL; listed as Homo sapiens) [compound 597]
42 | ″+++″ (≥50% = +++) | 401 (ILLDDTGLAYI; listed as Homo sapiens) [compound 401]

Row | Peptide exchange (MHC class I binding score, peptide exchange yield) | Substance
43 | ″+++″ (≥50% = +++) | 454 (KLPPPPPQA; listed as Homo sapiens) [compound 454]
44 | ″+++″ (≥50% = +++) | 85 (KMSELRVTL; listed as Homo sapiens) [compound 85]
45 | ″++++″ (≥75% = ++++) | 109 (IILSILEQA; listed as Homo sapiens) [compound 109]
46 | ″++++″ (≥75% = ++++) | 395 (ALALGGIAVV; listed as Homo sapiens) [compound 395]
47 | ″+++″ (≥50% = +++) | 399 (YLFEPLYHV; listed as Homo sapiens) [compound 399]
48 | ″+++″ (≥50% = +++) | 263 (LLVSNLDFGV; listed as Homo sapiens) [compound 263]
49 | ″++″ (≥20% = ++) | 18 (YLVAKLVEV; listed as Homo sapiens) [compound 18]
50 | ″+++″ (≥50% = +++) | 561 (YLQLTQSEL; listed as Homo sapiens) [compound 561]
51 | ″++″ (≥20% = ++) | 44 (ILDPISSGFLL; listed as Homo sapiens) [compound 44]
52 | ″+++″ (≥50% = +++) | 600 (ALAAPDIVPAL; listed as Homo sapiens) [compound 600]
53 | ″+++″ (≥50% = +++) | 478 (YLLHEKLNL; listed as Homo sapiens) [compound 478]
54 | ″+++″ (≥50% = +++) | 111 (YVWGFYPAEV; listed as Homo sapiens) [compound 111]
55 | ″+++″ (≥50% = +++) | 479 (SLFGNSGILENV; listed as Homo sapiens) [compound 479]
56 | ″+++″ (≥50% = +++) | 493 (GLLGEKTQDLIGV; listed as Homo sapiens) [compound 493]
57 | ″+++″ (≥50% = +++) | 599 (YLLNDASLISV; listed as Homo sapiens) [compound 599]
58 | ″+″ (≥10% = +) | 116 (YHIDEEVGF; listed as Homo sapiens) [compound 116]
59 | ″+++″ (≥50% = +++) | 245 (SMIDDLLGV; listed as Homo sapiens) [compound 245]
60 | ″+++″ (≥50% = +++) | 613 (RLLPPGAVVAV; listed as Homo sapiens) [compound 613]
61 | ″++++″ (≥75% = ++++) | 466 (VLIANLEKL; listed as Homo sapiens) [compound 466]
